Patent US20230265151A1, “GIP/GLP1 CO-AGONIST COMPOUNDS” (priority 2020, published 2023)
Numbering of substitutions follows the chain as printed.

T1: human GIP receptor (human, UniProt P48546 22-466)
T1 sequence (looked up): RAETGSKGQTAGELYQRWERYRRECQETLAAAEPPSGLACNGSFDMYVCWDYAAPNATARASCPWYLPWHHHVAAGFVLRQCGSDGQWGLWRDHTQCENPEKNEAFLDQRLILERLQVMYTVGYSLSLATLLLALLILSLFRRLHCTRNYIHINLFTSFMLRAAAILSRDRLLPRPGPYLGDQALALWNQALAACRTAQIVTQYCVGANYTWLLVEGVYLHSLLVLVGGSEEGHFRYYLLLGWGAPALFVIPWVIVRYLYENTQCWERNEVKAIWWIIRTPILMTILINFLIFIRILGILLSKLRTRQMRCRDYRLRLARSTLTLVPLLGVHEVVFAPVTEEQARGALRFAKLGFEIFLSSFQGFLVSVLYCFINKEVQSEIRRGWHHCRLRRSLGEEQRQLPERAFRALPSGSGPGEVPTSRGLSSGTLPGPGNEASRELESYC

B1: Example 132 (peptide)
peptide: YXEGTXTSDXSIXLDXKAQXEFIKXLIEGGPSSGAPPPS
modifications: Aib2, αMeF(2F)6, 4Pal10, αMeL13, Orn16, Aib20, αMeY25, K17 and K24: K(AEEA2-(γ-Glu)-(4-(4-tert-butylphenyl)butanoyl)), C-terminal NH2
B2: Example 15 (peptide)
peptide: B1 peptide with E21K, K24X
modifications: Aib2, αMeF(2F)6, 4Pal10, αMeL13, Orn16, Aib20, D-Glu24, αMeY25, K17 and K21: K(AEEA2-(γ-Glu)-CO-(CH2)12-CO2H), C-terminal NH2
B3: Example 145 (peptide)
peptide: B1 peptide with K24X, P31K
modifications: Aib2, αMeF(2F)6, 2TA10, αMeL13, Orn16, Aib20, D-Glu24, αMeY25, K17 and K31: K(AEEA2-(γ-Glu)-CO-(CH2)12-CO2H), C-terminal NH2
B4: Example 151 (peptide)
peptide: B1 peptide with K24X, E28X, P31K
modifications: Aib2, αMeF(2F)6, 4Pal10, αMeL13, Orn16, Aib20, D-Glu24, αMeY25, Orn28, K17 and K31: K(AEEA2-(γ-Glu)-CO-(CH2)12-CO2H), C-terminal NH2
B5: Example 154 (peptide)
peptide: B1 peptide with K24X, P31K, S39X
modifications: Aib2, αMeF(2F)6, 4Pal10, αMeL13, Orn16, Aib20, D-Glu24, αMeY25, Orn39, K17 and K31: K(AEEA2-(γ-Glu)-CO-(CH2)12-CO2H), C-terminal NH2
B6: Example 136 (peptide)
peptide: B1 peptide with X10K, K24X
modifications: Aib2, αMeF(2F)6, αMeL13, Orn16, Aib20, D-Glu24, αMeY25, K10 and K17: K(AEEA2-(γ-Glu)-CO-(CH2)10-CH3), C-terminal NH2
B7: Example 152 (peptide)
peptide: B1 peptide with K24X, G30X, P31K
modifications: Aib2, αMeF(2F)6, 4Pal10, αMeL13, Orn16, Aib20, D-Glu24, αMeY25, Orn30, K17 and K31: K(AEEA2-(γ-Glu)-CO-(CH2)12-CO2H), C-terminal NH2
B8: Example 150 (peptide)
peptide: B1 peptide with E21X, K24X, P31K
modifications: Aib2, αMeF(2F)6, 4Pal10, αMeL13, Orn16, Aib20, Orn21, D-Glu24, αMeY25, K17 and K31: K(AEEA2-(γ-Glu)-CO-(CH2)12-CO2H), C-terminal NH2
B9: Example 140 (peptide)
peptide: B1 peptide with K24X, G30K
modifications: Aib2, αMeF(2F)6, 4Pal10, αMeL13, Orn16, Aib20, D-Glu24, αMeY25, K17 and K30: K(AEEA2-(γ-Glu)-CO-(CH2)10-CH3), C-terminal NH2
B10: Example 13 (peptide)
peptide: B1 peptide with K24X, P31K
modifications: Aib2, αMeF(2F)6, 4Pal10, αMeL13, Orn16, Aib20, D-Glu24, αMeY25, K17 and K31: K(AEEA-(γ-Glu)-CO-(CH2)14-CH3), C-terminal NH2
B11: Example 133 (peptide)
peptide: B1 peptide with K24X, E28K
modifications: Aib2, αMeF(2F)6, 4Pal10, αMeL13, Orn16, Aib20, D-Glu24, αMeY25, K17 and K28: K(AEEA2-(γ-Glu)-(4-(4-tert-butylphenyl)butanoyl)), C-terminal NH2
B12: Example 144 (peptide)
peptide: B1 peptide with K24X, P31K
modifications: Aib2, αMeF(2F)6, 4TAA10, αMeL13, Orn16, Aib20, D-Glu24, αMeY25, K17 and K31: K(AEEA2-(γ-Glu)-CO-(CH2)12-CO2H), C-terminal NH2
B13: Example 143 (peptide)
peptide: B1 peptide with K24X, P31K
modifications: Aib2, αMeF(2F)6, 2FA10, αMeL13, Orn16, Aib20, D-Glu24, αMeY25, K17 and K31: K(AEEA2-(γ-Glu)-CO-(CH2)12-CO2H), C-terminal NH2
B14: Example 138 (peptide)
peptide: B1 peptide
modifications: Aib2, αMeF(2F)6, 4Pal10, αMeL13, Orn16, Aib20, αMeY25, K17 and K24: K(AEEA2-(γ-Glu)-CO-(CH2)10-CH3), C-terminal NH2
B15: Example 146 (peptide)
peptide: B1 peptide with K24X, P31K
modifications: Aib2, αMeF(2F)6, 3TA10, αMeL13, Orn16, Aib20, D-Glu24, αMeY25, K17 and K31: K(AEEA2-(γ-Glu)-CO-(CH2)12-CO2H), C-terminal NH2
B16: Example 148 (peptide)
peptide: B1 peptide with F22X, K24X, P31K
modifications: Aib2, αMeF(2F)6, 4Pal10, αMeL13, Orn16, Aib20, ChA22, D-Glu24, αMeY25, K17 and K31: K(AEEA2-(γ-Glu)-CO-(CH2)12-CO2H), C-terminal NH2
B17: Example 137 (peptide)
peptide: B1 peptide with E21K, K24X
modifications: Aib2, αMeF(2F)6, 4Pal10, αMeL13, Orn16, Aib20, D-Glu24, αMeY25, K17 and K21: K(AEEA2-(γ-Glu)-CO-(CH2)10-CH3), C-terminal NH2
B18: Example 17 (peptide)
peptide: B1 peptide with K24X, E28K
modifications: Aib2, αMeF(2F)6, 4Pal10, αMeL13, Orn16, Aib20, D-Glu24, αMeY25, K17 and K28: K(AEEA2-(γ-Glu)-CO-(CH2)12-CO2H), C-terminal NH2
B19: Example 149 (peptide)
peptide: B1 peptide with K24X, P31K
modifications: Aib2, αMeF(2F)6, 4Pal10, αMeL13, Orn16, Orn20, D-Glu24, αMeY25, K17 and K31: K(AEEA2-(γ-Glu)-CO-(CH2)12-CO2H), C-terminal NH2

Molecular target: T1, human GIP receptor
Assay: cell-based or functional assay

| Binder | EC50, cAMP [nM] | Emax, cAMP [%] |
| --- | --- | --- |
| B1 | 0.0208 | – |
| B2 | 0.0133 | – |
| B3 | 0.0286 | 74.8 |
| B4 | 0.0197 | – |
| B5 | 0.0299 | 96.6 |
| B6 | 0.0069 | 97.4 |
| B7 | 0.0416 | 97.9 |
| B8 | 0.0268 | – |
| B9 | 0.0121 | 98.5 |
| B10 | 0.00597 | – |
| B11 | 0.018 | – |
| B12 | 0.0193 | 90 |
| B13 | 0.022 | – |
| B14 | 0.0197 | – |
| B15 | 0.0198 | 76.5 |
| B16 | 0.0209 | – |
| B17 | 0.0116 | – |
| B18 | 0.0129 | – |
| B19 | 0.0791 | – |

Molecular target: human GLP-1 receptor (human, UniProt P43220 24-463)
Assay: cell-based or functional assay

| Binder | EC50, cAMP [nM] | Emax, cAMP [%] |
| --- | --- | --- |
| B1 | 0.182 | – |
| B2 | 0.995 | – |
| B3 | 0.555 | – |
| B4 | 0.546 | – |
| B5 | 1.69 | – |
| B6 | 0.0918 | – |
| B7 | 3.91 | – |
| B8 | 0.455 | – |
| B9 | 0.131 | – |
| B10 | 0.0214 | – |
| B11 | 0.258 | – |
| B12 | 3.47 | – |
| B13 | 0.512 | – |
| B14 | 0.267 | – |
| B15 | 0.688 | – |
| B16 | 1.77 | 94.5 |
| B17 | 0.134 | – |
| B18 | 1.57 | – |
| B19 | 1.5 | – |

Molecular target: human glucagon receptor (human, UniProt P47871 26-477)
Assay: cell-based or functional assay

| Binder | EC50, cAMP [nM] |
| --- | --- |
| B1 | > 9950 |
| B2 | > 9950 |
| B3 | > 9950 |
| B4 | > 9950 |
| B5 | > 9950 |
| B6 | > 9950 |
| B7 | > 9950 |
| B8 | > 9950 |
| B9 | > 9950 |
| B10 | > 9950 |
| B11 | > 9950 |
| B12 | > 9950 |
| B13 | > 9950 |
| B14 | > 9950 |
| B15 | > 9950 |
| B16 | > 9950 |
| B17 | > 9950 |
| B18 | > 9950 |
| B19 | > 9950 |
